The values that follow come from patent publication US20240132625A1.

Experiment [1] concerns the target HER2 ectodomain (biotinylated Her2/ERBB2, Sino Biological) (human) (UniProt P04626). The experiment in a line: BLI, antigen on streptavidin tip, 1:1 fit.
The next experiment concerns the target CD20 on SU-DHL5 cells (UniProt P11836). As to the kind of experiment: flow cytometry on SU-DHL5 cells, muGFP signal, 10 nM antibody. On the technique in general: Flow cytometry measures light scatter and fluorescence of single cells or particles in a stream.
The target in experiment [2] is HER2 ectodomain (biotinylated Her2/ERBB2, Sino Biological) (human) (UniProt P04626). As to the kind of experiment: BLI, […], antibody 3.1-[…], 1:1 fit. (In BLI a coated tip is dipped into the sample, and binding shifts an interference pattern.)
Experiment [3] has the same target. The experiment in a line: BLI, antigen on streptavidin tip; below the instrument's limit.
Experiment [4] has the same target. The experiment in a line: BLI, HER2 ectodomain on tip; effective KD.
Experiment [5] shares this target. The experiment in a line: BLI, HER2 ectodomain immobilized on the sensor tip, antibody in half dilution from 250 nM, 1:1 fit.
Experiment [6] has as its target Receptor-binding domain of the SARS-CoV-2 spike protein (biotinylated, Acrobio system) (SARS-CoV-2) (UniProt P0DTC2). As to the kind of experiment: BLI, antigen on streptavidin tip; below the instrument's limit.
Experiment [7] shares this target. The experiment in a line: BLI, antigen on streptavidin tip.
The target is the same in experiment [8]. The experiment in a line: BLI, antigen on streptavidin tip, 1:1 fit.
The target in experiment [9] is HER2 ectodomain (biotinylated Her2/ERBB2, Sino Biological) (human) (UniProt P04626). As to the kind of experiment: BLI, HER2 ectodomain on tip.
The target is the same in experiment [10]. The experiment in a line: BLI, […], antibody 6.25-50 nM, 1:1 fit.
Experiment [11] concerns the target CD20 immobilized on a sensor tip (UniProt P11836). The experiment in a line: BLI, CD20 on tip; effective KD.
Experiment [12] has the same target. The experiment in a line: BLI, […], antibody 6.25-50.0 nM, 1:1 fit.
The target is the same in experiment [13]. As to the kind of experiment: BLI, human CD20 immobilized on the sensor tip, antibody in half dilution from 50 nM, 1:1 fit.
Experiment [14] has the same target. The experiment in a line: BLI, CD20 on tip.
Experiment [15] concerns the target HER2 ectodomain (biotinylated Her2/ERBB2, Sino Biological) (human) (UniProt P04626). The experiment in a line: BLI, HER2 ectodomain immobilized on the sensor tip, antibody in half dilution from 500 nM, 1:1 fit.

In experiment [1], Trastuzumab(N30A/H91A) (antibody) gave a Kd of 2.1 nM and an on-rate (kon) of 190000 M⁻¹ s⁻¹.
As for “SLy1(254-316)^(H)-Obinutuzumab(F101L)/HetFc-SDF-1α(8-67)^(H) labeled with muGFP at the C-terminus of the light chain (antibody)”, the percent bound to SU-DHL5 cells at 10 nM with CD20 on SU-DHL5 cells amounted to 90%.
“Trastuzumab(N30A/H91A)-SDF-1α(8-67)^(H) (antibody)”: the values for the kon in [2] and in [1] were 310000 M⁻¹ s⁻¹ and 290000 M⁻¹ s⁻¹, respectively. For the same substance, the dissociation constant Kd in experiment [3] was < 0.01 nM.
Turning to “Trastuzumab(N30A/H91A)-HomoCC^(H) (antibody)”, in [4], the Kd is < 0.01 nM.
Take “SLy1(254-316)^(H)-Trastuzumab(N30A/H91A/Y100A)/HetFc-SDF-1α(8-67)^(H) (antibody)”: the Kd in experiment [4] was < 0.8 nM. Also, in experiment [5], the dissociation constant (Kd) worked out at 0.8 nM, the koff is 5.8e-05 s⁻¹ and the on-rate (kon) is 71000 M⁻¹ s⁻¹.
glCV30-SDF-1α(8-67)^(H) (antibody): in [6], the Kd was < 0.01 nM. For the same substance, the fold increase of binding avidity over glCV30 in experiment [7] is > 130 fold. Besides, the kon in experiment [8] was determined as 770000 M⁻¹ s⁻¹.
Regarding Trastuzumab(N30A/H91A/Y100A) (antibody), the Kd in experiment [9] is 243 nM.
Regarding “Trastuzumab(N30A/H91A)-SDF-1α(8-67)^(L) (antibody)”, in experiment [10], the off-rate constant (koff) was < 1e-07 s⁻¹ and the on-rate (kon) came out at 189000 M⁻¹ s⁻¹. Also, the Kd in experiment [4] is < 0.01 nM.
For “SLy1(254-316)^(H)-Obinutuzumab(Y101L)/HetFc-SDF-1α(8-67)^(H) (antibody)”, the Kd in experiment [11] was found to be 0.13 nM. Moreover, in experiment [12], the koff turned out to be 2.3e-05 s⁻¹ and the kon came to 180000 M⁻¹ s⁻¹.
In the case of Obinutuzumab(Y101L) (antibody), in [13], the koff came out at 0.01 s⁻¹ and the association rate constant (kon) is 330000 M⁻¹ s⁻¹. In [14], this substance showed a Kd of 30.4 nM.
In experiment [15], “SLy1(254-316)^(H)-Trastuzumab(N30A/H91A/Y100A)/HetFc (antibody)” displayed a Kd of 373 nM.

In general, Kd refers to the equilibrium constant for the complex coming apart. A low value points to higher affinity. Usually kon stands for the second-order rate constant of association. A low value points to slow association. The koff is the rate constant with which the complex falls apart.
